Publication PMC4137956 (Immunology, 2014)

Experiments:
[1] = target: T1, C57BL/6 mouse SIRPα, N-terminal domain (d1) (mouse, biotin (on the biotinylation sequence)); assay: SPR; biotinylated SIRPα variants bound to streptavidin immobilised on a BIAcore CM5 chip, BIAcore 3000, 37°; dilutions of monomeric recombinant CD47 extracellular domain passed over; affinity from equilibrium binding; details: one partner purified
T1 sequence (P97797 whole entry, looked up): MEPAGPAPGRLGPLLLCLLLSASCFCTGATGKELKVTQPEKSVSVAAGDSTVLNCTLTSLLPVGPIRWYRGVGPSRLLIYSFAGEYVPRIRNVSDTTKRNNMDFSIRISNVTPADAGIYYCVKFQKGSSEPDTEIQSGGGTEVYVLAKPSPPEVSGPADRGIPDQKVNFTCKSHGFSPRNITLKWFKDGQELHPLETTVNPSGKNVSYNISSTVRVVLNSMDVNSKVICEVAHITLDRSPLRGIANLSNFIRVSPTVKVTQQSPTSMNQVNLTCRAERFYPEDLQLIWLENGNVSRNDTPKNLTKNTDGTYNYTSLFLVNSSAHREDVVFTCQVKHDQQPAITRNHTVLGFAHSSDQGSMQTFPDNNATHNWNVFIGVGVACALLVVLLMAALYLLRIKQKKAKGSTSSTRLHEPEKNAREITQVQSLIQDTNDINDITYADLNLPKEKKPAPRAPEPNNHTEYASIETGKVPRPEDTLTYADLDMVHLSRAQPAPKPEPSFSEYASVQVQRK

[2] = target: T2, 129 mouse SIRPα, three extracellular IgSF domains (3d) (mouse, UniProt P97797 32-369, biotin (on the biotinylation sequence)); assay: as above; details: one partner purified
T2 sequence (looked up): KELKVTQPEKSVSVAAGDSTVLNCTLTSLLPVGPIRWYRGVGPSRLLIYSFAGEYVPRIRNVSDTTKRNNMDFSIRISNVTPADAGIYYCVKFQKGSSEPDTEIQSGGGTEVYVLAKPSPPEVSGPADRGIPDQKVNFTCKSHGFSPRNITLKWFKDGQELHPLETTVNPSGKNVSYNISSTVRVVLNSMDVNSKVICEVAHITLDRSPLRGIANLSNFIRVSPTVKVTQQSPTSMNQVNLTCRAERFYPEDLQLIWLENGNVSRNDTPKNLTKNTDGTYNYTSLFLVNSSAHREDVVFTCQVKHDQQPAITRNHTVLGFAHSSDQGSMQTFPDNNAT

Kd [1]: 5.3 µM
Kd [2]: 2.5 µM
B1: mouse CD47 IgSF domain, monomeric recombinant extracellular domain (domain or fragment)
chain: QLLFSNVNSIEFTSGNETVVIPCIVRNVEAQSTEEMFVKWKLNKSYIFIYDGNKNSTTTDQNFTSAKISVSDLINGIASLKMDKRDAMVGNYTCEVTELSREGKTVIELKNRTVSWFSPNE
